# Assay results as given in patent publication US20090187998A1.
# Molecular target: wild-type serum response factor (SRF) in mouse heart (mouse) (UniProt Q9JM73)
# Test: cell-based or functional assay
# UniProt Q9JM73, sequence (Q9JM73 whole entry): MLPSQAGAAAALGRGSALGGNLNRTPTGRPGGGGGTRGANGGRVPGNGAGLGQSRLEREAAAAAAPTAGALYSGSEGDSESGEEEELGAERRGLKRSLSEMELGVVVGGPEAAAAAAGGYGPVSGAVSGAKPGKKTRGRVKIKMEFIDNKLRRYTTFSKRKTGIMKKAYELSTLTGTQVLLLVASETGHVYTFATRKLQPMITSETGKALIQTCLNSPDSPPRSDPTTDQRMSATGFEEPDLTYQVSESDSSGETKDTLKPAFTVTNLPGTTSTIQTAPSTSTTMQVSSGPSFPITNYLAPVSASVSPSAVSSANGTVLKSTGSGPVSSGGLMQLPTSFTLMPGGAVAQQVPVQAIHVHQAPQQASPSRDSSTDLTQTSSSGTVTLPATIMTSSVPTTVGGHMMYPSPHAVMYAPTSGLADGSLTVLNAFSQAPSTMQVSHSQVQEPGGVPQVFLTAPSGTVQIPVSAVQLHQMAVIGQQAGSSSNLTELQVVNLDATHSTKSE
substance,measurement,value
dominant negative mutant form of human SRF (Thr->Ser at position 159 and Lys->Glu at position 163 of SRF) (from UniProt P11831 1-508),EMSA: binding of SRF in heart protein lysate to the biotin-labeled wild-type SRE probe (Mild-R SRF Tg vs Non-Tg),47 % reduced
